T1: EsCas13d, nuclease-dead (Eubacterium siraeum, UniProt B0MS50, R295A;H300A;R849A;H854A)
T1 sequence: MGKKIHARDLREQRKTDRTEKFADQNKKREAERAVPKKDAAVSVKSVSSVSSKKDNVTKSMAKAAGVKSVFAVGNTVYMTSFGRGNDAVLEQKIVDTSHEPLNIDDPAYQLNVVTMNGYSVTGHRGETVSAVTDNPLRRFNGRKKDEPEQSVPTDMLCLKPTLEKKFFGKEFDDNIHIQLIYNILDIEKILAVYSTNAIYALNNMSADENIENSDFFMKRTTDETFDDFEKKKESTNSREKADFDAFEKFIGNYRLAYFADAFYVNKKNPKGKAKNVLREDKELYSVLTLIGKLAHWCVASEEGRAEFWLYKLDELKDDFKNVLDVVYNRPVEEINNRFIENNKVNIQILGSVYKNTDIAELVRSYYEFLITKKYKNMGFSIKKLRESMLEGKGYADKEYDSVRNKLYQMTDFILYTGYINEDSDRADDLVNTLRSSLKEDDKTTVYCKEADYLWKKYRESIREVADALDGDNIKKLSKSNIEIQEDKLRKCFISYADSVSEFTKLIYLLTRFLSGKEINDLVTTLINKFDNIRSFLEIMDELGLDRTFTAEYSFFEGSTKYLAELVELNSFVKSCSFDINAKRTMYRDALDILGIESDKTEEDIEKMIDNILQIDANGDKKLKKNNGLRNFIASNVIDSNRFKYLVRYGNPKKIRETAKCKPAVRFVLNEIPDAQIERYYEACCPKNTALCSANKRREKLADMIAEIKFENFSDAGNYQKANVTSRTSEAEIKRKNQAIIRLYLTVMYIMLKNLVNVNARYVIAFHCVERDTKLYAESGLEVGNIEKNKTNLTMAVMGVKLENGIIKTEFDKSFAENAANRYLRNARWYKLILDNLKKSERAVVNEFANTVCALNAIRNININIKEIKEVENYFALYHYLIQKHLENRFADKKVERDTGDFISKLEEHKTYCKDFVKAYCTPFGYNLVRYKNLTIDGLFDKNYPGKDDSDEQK

B1: target 1 MT 5'PFS AGA 3'PFS CAC (mixed)
RNA 1: CACCCGUGCAAAAAUGCAGGGGUCUAAAACUGAGCGGAUAACCUCUCUAUGG
RNA 2: GGGAAUGGAUCCACAUCUACGAAUUCAGACCAUAGAGAGGUUAUCCGCUCACACAGAUCGGAAGAGCACACGU
B2: target 1 MT 5'PFS UCG 3'PFS CGA (mixed)
RNA 1: CACCCGUGCAAAAAUGCAGGGGUCUAAAACUGAGCGGAUAACCUCUCUAUGG
RNA 2: GGGAAUGGAUCCACAUCUACGAAUUCUCGCCAUAGAGAGGUUAUCCGCUCACGAAGAUCGGAAGAGCACACGU
B3: target 1 MT 5'PFS ACG 3'PFS ACA (mixed)
RNA 1: CACCCGUGCAAAAAUGCAGGGGUCUAAAACUGAGCGGAUAACCUCUCUAUGG
RNA 2: GGGAAUGGAUCCACAUCUACGAAUUCACGCCAUAGAGAGGUUAUCCGCUCAACAAGAUCGGAAGAGCACACGU
B4: target 1 MT 5'PFS ACU 3'PFS AAU (mixed)
RNA 1: CACCCGUGCAAAAAUGCAGGGGUCUAAAACUGAGCGGAUAACCUCUCUAUGG
RNA 2: GGGAAUGGAUCCACAUCUACGAAUUCACUCCAUAGAGAGGUUAUCCGCUCAAAUAGAUCGGAAGAGCACACGU
B5: target 1 MT 5'PFS UUA 3'PFS UAU (mixed)
RNA 1: CACCCGUGCAAAAAUGCAGGGGUCUAAAACUGAGCGGAUAACCUCUCUAUGG
RNA 2: GGGAAUGGAUCCACAUCUACGAAUUCUUACCAUAGAGAGGUUAUCCGCUCAUAUAGAUCGGAAGAGCACACGU
B6: target 1 MT 5'PFS UUG 3'PFS AGU (mixed)
RNA 1: CACCCGUGCAAAAAUGCAGGGGUCUAAAACUGAGCGGAUAACCUCUCUAUGG
RNA 2: GGGAAUGGAUCCACAUCUACGAAUUCUUGCCAUAGAGAGGUUAUCCGCUCAAGUAGAUCGGAAGAGCACACGU
B7: target 1 MT 5'PFS GUA 3'PFS CCC (mixed)
RNA 1: CACCCGUGCAAAAAUGCAGGGGUCUAAAACUGAGCGGAUAACCUCUCUAUGG
RNA 2: GGGAAUGGAUCCACAUCUACGAAUUCGUACCAUAGAGAGGUUAUCCGCUCACCCAGAUCGGAAGAGCACACGU
B8: target 1 insA 3' of 8,insA 3' of 3 (mixed)
RNA 1: CACCCGUGCAAAAAUGCAGGGGUCUAAAACUGAGCGGAUAACCUCUCUAUGG
RNA 2: GGGAAUGGAUCCACAUCUACGAAUUCGUACCAUAGAGAGGUUAUACCGCUACACCGAGAUCGGAAGAGCACACGU
B9: target 1 MT 5'PFS GUA 3'PFS CCA (mixed)
RNA 1: CACCCGUGCAAAAAUGCAGGGGUCUAAAACUGAGCGGAUAACCUCUCUAUGG
RNA 2: GGGAAUGGAUCCACAUCUACGAAUUCGUACCAUAGAGAGGUUAUCCGCUCACCAAGAUCGGAAGAGCACACGU
B10: target 1 MT 5'PFS CAA 3'PFS CAU (mixed)
RNA 1: CACCCGUGCAAAAAUGCAGGGGUCUAAAACUGAGCGGAUAACCUCUCUAUGG
RNA 2: GGGAAUGGAUCCACAUCUACGAAUUCCAACCAUAGAGAGGUUAUCCGCUCACAUAGAUCGGAAGAGCACACGU
B11: target 1 MT 5'PFS GUA 3'PFS CCU (mixed)
RNA 1: CACCCGUGCAAAAAUGCAGGGGUCUAAAACUGAGCGGAUAACCUCUCUAUGG
RNA 2: GGGAAUGGAUCCACAUCUACGAAUUCGUACCAUAGAGAGGUUAUCCGCUCACCUAGAUCGGAAGAGCACACGU
B12: target 1 MT 5'PFS UUG 3'PFS AGA (mixed)
RNA 1: CACCCGUGCAAAAAUGCAGGGGUCUAAAACUGAGCGGAUAACCUCUCUAUGG
RNA 2: GGGAAUGGAUCCACAUCUACGAAUUCUUGCCAUAGAGAGGUUAUCCGCUCAAGAAGAUCGGAAGAGCACACGU
B13: target 1 MT 5'PFS AGA 3'PFS ACU (mixed)
RNA 1: CACCCGUGCAAAAAUGCAGGGGUCUAAAACUGAGCGGAUAACCUCUCUAUGG
RNA 2: GGGAAUGGAUCCACAUCUACGAAUUCAGACCAUAGAGAGGUUAUCCGCUCAACUAGAUCGGAAGAGCACACGU
B14: target 1 MT 5'PFS UAG 3'PFS UCA (mixed)
RNA 1: CACCCGUGCAAAAAUGCAGGGGUCUAAAACUGAGCGGAUAACCUCUCUAUGG
RNA 2: GGGAAUGGAUCCACAUCUACGAAUUCUAGCCAUAGAGAGGUUAUCCGCUCAUCAAGAUCGGAAGAGCACACGU
B15: target 1 MT 5'PFS GGG 3'PFS GCA (mixed)
RNA 1: CACCCGUGCAAAAAUGCAGGGGUCUAAAACUGAGCGGAUAACCUCUCUAUGG
RNA 2: GGGAAUGGAUCCACAUCUACGAAUUCGGGCCAUAGAGAGGUUAUCCGCUCAGCAAGAUCGGAAGAGCACACGU
B16: target 1 MT 5'PFS CAA 3'PFS ACA (mixed)
RNA 1: CACCCGUGCAAAAAUGCAGGGGUCUAAAACUGAGCGGAUAACCUCUCUAUGG
RNA 2: GGGAAUGGAUCCACAUCUACGAAUUCCAACCAUAGAGAGGUUAUCCGCUCAACAAGAUCGGAAGAGCACACGU
B17: target 1 MT 5'PFS UAG 3'PFS UCG (mixed)
RNA 1: CACCCGUGCAAAAAUGCAGGGGUCUAAAACUGAGCGGAUAACCUCUCUAUGG
RNA 2: GGGAAUGGAUCCACAUCUACGAAUUCUAGCCAUAGAGAGGUUAUCCGCUCAUCGAGAUCGGAAGAGCACACGU
B18: target 1 MT 5'PFS ACU 3'PFS AAA (mixed)
RNA 1: CACCCGUGCAAAAAUGCAGGGGUCUAAAACUGAGCGGAUAACCUCUCUAUGG
RNA 2: GGGAAUGGAUCCACAUCUACGAAUUCACUCCAUAGAGAGGUUAUCCGCUCAAAAAGAUCGGAAGAGCACACGU
B19: target 1 insU 3' of 21,insC 3' of 3 (mixed)
RNA 1: CACCCGUGCAAAAAUGCAGGGGUCUAAAACUGAGCGGAUAACCUCUCUAUGG
RNA 2: GGGAAUGGAUCCACAUCUACGAAUUCGUACCUAUAGAGAGGUUAUCCGCUCCACCGAGAUCGGAAGAGCACACGU
B20: target 1 MT 5'PFS ACA 3'PFS AAG (mixed)
RNA 1: CACCCGUGCAAAAAUGCAGGGGUCUAAAACUGAGCGGAUAACCUCUCUAUGG
RNA 2: GGGAAUGGAUCCACAUCUACGAAUUCACACCAUAGAGAGGUUAUCCGCUCAAAGAGAUCGGAAGAGCACACGU
B21: target 1 MT 5'PFS ACA 3'PFS CGG (mixed)
RNA 1: CACCCGUGCAAAAAUGCAGGGGUCUAAAACUGAGCGGAUAACCUCUCUAUGG
RNA 2: GGGAAUGGAUCCACAUCUACGAAUUCACACCAUAGAGAGGUUAUCCGCUCACGGAGAUCGGAAGAGCACACGU
B22: target 1 MT 5'PFS UAG 3'PFS UCC (mixed)
RNA 1: CACCCGUGCAAAAAUGCAGGGGUCUAAAACUGAGCGGAUAACCUCUCUAUGG
RNA 2: GGGAAUGGAUCCACAUCUACGAAUUCUAGCCAUAGAGAGGUUAUCCGCUCAUCCAGAUCGGAAGAGCACACGU
B23: target 1 MT 5'PFS ACG 3'PFS ACU (mixed)
RNA 1: CACCCGUGCAAAAAUGCAGGGGUCUAAAACUGAGCGGAUAACCUCUCUAUGG
RNA 2: GGGAAUGGAUCCACAUCUACGAAUUCACGCCAUAGAGAGGUUAUCCGCUCAACUAGAUCGGAAGAGCACACGU

We go through 23 molecules from article PMC10786891, “Massively parallel profiling of RNA-targeting CRISPR-Cas13d”.

The term Kd denotes the equilibrium constant for the complex coming apart.

The target of the data set is T1, EsCas13d, nuclease-dead. The data set is described as follows: crRNA (strand 1, pre-loaded); Mg2+; 40 mM Tris-HCl pH 7.5, 150 mM NaCl, 6 mM MgCl2, 1 mM DTT, 0.1% Tween-20, 0.2 mg/ml BSA; 25 C; 10 min per concentration, then washed. The conditions noted are these: tags: His6-TwinStrep-SUMO cleaved; N-terminal SNAP kept (SNAP-Surface 488); label: 3' end held by stalled T7 RNA polymerase.
The molecule B1 registered an equilibrium dissociation constant (Kd) of around 110 nM.

B2 returned an equilibrium dissociation constant (Kd) of 51 ± 22.5 nM.

In the case of B3, the Kd was determined as 25 ± 8 nM.

B4: the Kd is around 60 nM.

As to B5, binding was put at a Kd of 12.7 ± 1.35 nM.

The molecule B6 returned a Kd of 84 ± 33 nM.

The molecule B7 gave a dissociation constant Kd of 12.6 ± 2.1 nM.

Turning to B8, the Kd was 10.4 ± 0.4 nM.

As for B9, the dissociation constant (Kd) stood at 19.6 ± 2.4 nM.

Molecule B10 returned a dissociation constant Kd of 32.5 ± 9.5 nM.

B11 gave a Kd of 7.3 ± 0.8 nM.

As to B12, the dissociation constant (Kd) was 90 ± 40 nM.

The molecule B13 came in with a Kd of around 32 nM.

B14 gave a dissociation constant (Kd) of 25 ± 5 nM.

For B15, the affinity, expressed as Kd, was 36 ± 13 nM.

On to B16, for which the Kd was around 27 nM.

Turning to B17, binding was put at a Kd of 20.1 ± 3.45 nM.

As for B18, the Kd was around 75.5 nM.

B19 showed a Kd of 22.7 ± 1.4 nM.

For B20, binding was characterised by a dissociation constant (Kd) of 18 ± 6 nM.

B21 had a Kd of around 70 nM.

As for B22, the Kd came out at 63.5 ± 20 nM.

Molecule B23 yielded a dissociation constant (Kd) of 10.4 ± 3.5 nM.
